Measured values published in IntAct's records for PubMed 21293379.

Biological target: nsd2_human NSD2 (UniProt O96028)
Chain of UniProt O96028 (O96028 whole entry): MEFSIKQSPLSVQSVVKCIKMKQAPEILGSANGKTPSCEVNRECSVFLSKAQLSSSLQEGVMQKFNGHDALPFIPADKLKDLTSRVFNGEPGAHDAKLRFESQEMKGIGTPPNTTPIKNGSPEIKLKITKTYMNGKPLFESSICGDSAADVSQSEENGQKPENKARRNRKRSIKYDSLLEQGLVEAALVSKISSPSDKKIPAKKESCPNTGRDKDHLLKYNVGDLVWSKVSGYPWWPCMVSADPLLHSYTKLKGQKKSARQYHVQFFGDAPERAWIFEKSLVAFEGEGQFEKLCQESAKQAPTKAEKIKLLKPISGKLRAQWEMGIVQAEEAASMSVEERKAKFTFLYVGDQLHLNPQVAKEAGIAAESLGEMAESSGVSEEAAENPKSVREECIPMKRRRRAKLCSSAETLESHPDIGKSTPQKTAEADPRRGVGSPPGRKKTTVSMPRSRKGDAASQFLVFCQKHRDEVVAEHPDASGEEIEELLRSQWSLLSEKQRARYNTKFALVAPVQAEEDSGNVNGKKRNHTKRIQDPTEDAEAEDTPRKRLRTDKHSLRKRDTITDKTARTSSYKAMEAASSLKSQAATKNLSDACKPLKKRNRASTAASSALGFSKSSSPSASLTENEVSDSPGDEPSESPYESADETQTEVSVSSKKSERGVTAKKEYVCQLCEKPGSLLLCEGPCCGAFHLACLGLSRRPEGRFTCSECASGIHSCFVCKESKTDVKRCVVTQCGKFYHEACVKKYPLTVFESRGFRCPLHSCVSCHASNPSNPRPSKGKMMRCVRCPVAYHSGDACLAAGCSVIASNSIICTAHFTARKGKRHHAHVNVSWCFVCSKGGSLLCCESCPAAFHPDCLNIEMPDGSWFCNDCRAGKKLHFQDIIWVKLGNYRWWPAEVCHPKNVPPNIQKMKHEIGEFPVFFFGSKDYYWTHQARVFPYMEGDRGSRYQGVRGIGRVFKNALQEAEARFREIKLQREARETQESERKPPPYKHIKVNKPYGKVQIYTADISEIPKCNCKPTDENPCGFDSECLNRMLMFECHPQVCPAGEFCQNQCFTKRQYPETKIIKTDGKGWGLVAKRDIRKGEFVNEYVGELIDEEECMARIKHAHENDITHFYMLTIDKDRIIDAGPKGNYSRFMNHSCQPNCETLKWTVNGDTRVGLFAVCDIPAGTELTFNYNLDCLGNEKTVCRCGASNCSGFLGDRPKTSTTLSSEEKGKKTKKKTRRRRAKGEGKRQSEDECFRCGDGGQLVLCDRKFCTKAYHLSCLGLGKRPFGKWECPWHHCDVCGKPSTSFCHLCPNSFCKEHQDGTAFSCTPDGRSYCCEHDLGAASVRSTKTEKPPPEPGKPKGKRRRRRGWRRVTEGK

## Mediator of DNA damage checkpoint protein 1 (Homo sapiens), Q14676 K1936M
  effect of a mutation on the interaction: disrupting interaction
